According to publication doi:10.64898/2025.12.17.694870 (bioRxiv, 2025):
Where no end group is shown, it is not given here.

How the values were obtained:
[1] = molecular target: T1, wild-type Homer1 EVH1 domain (1-118) (Mus musculus, UniProt Q9Z2Y3 1-118); test: BLI
T1 sequence (looked up): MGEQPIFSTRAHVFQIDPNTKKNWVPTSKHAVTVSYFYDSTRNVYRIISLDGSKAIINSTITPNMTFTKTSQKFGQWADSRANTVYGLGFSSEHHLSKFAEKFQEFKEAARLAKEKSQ

[2] = molecular target: T2, Homer1 EVH1 domain (1-118) M65I (Mus musculus, UniProt Q9Z2Y3 1-118, M65I); test: BLI
T2 sequence (looked up): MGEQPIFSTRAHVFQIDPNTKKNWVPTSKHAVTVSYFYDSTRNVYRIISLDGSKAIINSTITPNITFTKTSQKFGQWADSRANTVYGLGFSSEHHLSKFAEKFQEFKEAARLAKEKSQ

[3] = molecular target: T3, Homer1 EVH1 domain (1-118) S97L (Mus musculus, UniProt Q9Z2Y3 1-118, S97L); test: BLI
T3 sequence (looked up): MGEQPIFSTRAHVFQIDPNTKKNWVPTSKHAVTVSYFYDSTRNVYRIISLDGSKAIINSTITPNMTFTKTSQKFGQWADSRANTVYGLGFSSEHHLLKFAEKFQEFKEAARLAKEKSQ

[4] = molecular target: T1, wild-type Homer1 EVH1 domain (1-118); test: NMR titration
[5] = molecular target: T2, Homer1 EVH1 domain (1-118) M65I; test: NMR titration
[6] = molecular target: T3, Homer1 EVH1 domain (1-118) S97L; test: NMR titration

Measured: binding result

LVPPPEEFANG (also: biotinylated, site not given here) [biotinylated Shank3 peptide ligand LVPPPEEFANG]
binds: [1] | [2] | [3]

LVPPPEEFANG [short Shank3 peptide LVPPPEEFANG]
binds: [4] | [5] | [6]
